Like-named read-outs stand apart in the source and are kept apart here. Each block holds one molecule with its values, some of them ahead of it.
What was measured:
Experiment in all cases: SPR
[1] = molecular target: Fc-tagged sFRP2 Fzl domain (mouse)
[2] = molecular target: T1, FLAG-tagged BMP1 (human, UniProt P13497-2 23-730)
T1 sequence (looked up): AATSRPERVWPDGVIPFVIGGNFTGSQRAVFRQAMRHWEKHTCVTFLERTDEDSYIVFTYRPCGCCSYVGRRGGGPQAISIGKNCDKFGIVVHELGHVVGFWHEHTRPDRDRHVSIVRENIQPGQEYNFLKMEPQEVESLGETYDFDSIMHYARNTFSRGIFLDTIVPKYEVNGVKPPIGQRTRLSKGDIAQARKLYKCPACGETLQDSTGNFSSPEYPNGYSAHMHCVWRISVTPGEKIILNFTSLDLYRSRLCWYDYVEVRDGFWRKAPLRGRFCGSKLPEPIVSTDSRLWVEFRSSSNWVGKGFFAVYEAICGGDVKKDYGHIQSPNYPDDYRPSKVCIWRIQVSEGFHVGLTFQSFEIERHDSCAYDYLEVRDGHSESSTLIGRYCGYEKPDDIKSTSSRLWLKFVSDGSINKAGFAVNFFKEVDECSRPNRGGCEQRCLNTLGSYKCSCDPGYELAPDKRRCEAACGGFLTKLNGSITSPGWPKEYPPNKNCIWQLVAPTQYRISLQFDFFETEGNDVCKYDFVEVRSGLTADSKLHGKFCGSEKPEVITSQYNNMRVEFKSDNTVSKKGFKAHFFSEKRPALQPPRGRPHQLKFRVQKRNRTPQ

[3] = molecular target: T1, FLAG-tagged BMP1; remark: listed apart in the source

- Kd [1]: 8.68 nM
Molecule: FLAG-tagged BMP1 (from UniProt P13497-2 23-730) (enzyme)

- Kd [2]: 7.13 nM
B1: His-tagged sFRP2 (natural protein, mouse, UniProt P97299 25-295, looked up)
chain: LFLFGQPDFSYKRSNCKPIPANLQLCHGIEYQNMRLPNLLGHETMKEVLEQAGAWIPLVMKQCHPDTKKFLCSLFAPVCLDDLDETIQPCHSLCVQVKDRCAPVMSAFGFPWPDMLECDRFPQDNDLCIPLASSDHLLPATEEAPKVCEACKTKNEDDNDIMETLCKNDFALKIKVKEITYINRDTKIILETKSKTIYKLNGVSERDLKKSVLWLKDSLQCTCEEMNDINAPYLVMGQKQGGELVITSVKRWQKGQREFKRISRSIRKLQC

- Kd [3]: ~6.01 nM
B2: full-length sFRP2-Fc (Fc fusion, mouse, UniProt P97299 25-295, looked up)
chain: B1 chain

Reference: paper PMC2722759 (Nature cell biology, 2008)
